Experimental data as given in patent US20140271602, “NUCLEOTIDE-SPECIFIC RECOGNITION SEQUENCES FOR DESIGNER TAL EFFECTORS” (THE BROAD INSTITUTE INC., published 2014).

Tests used:
[1] = target: T1, TALE1-NN (CACNA1C site 1 activator) (Xanthomonas (engineered), UniProt P14727 SEQ:1-983); test: cell_activity; HEK 293FT, endogenous CACNA1C mRNA; details: tags: VP64, 2A-GFP
T1 chain: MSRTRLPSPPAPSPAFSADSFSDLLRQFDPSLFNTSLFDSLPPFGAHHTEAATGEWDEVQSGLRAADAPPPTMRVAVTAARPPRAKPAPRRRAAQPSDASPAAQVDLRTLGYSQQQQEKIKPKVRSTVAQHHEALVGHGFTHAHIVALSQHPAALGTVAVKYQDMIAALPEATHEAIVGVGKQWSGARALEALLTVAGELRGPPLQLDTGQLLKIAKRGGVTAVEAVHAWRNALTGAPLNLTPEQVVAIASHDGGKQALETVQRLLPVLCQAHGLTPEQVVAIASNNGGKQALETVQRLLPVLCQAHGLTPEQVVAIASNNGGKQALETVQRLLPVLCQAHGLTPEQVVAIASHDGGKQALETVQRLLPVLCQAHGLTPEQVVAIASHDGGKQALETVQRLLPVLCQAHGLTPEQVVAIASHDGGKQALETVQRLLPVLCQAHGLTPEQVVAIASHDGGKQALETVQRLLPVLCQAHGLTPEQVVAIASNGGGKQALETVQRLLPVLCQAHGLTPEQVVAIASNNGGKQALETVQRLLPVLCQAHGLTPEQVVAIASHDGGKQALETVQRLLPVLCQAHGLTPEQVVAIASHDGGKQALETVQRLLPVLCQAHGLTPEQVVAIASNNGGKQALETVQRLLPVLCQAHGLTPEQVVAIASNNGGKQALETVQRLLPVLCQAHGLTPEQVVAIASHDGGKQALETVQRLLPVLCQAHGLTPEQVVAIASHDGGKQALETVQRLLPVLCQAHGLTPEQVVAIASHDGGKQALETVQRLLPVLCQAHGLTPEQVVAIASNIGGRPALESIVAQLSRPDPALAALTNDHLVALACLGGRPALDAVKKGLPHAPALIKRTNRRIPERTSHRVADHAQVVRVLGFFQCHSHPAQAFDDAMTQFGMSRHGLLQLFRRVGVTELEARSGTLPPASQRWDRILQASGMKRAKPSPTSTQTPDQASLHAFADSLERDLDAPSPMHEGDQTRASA
Description: Changes in mRNA are measured using qRT-PCR as described previously. VP64, VP64 transcription activation domain. All results are collected from three independent experiments in HEK 293FT cells. Error bars indicate s.e.m.; n=3. FIG. 19(b) discloses SEQ ID NOS 63 and 62, respectively, in order of appearance.
Using qRT-PCR, the performance of NN, NK, NH, and HN for targeting endogenous genomic sequences was further compared. The ability of NN-, NK-, NH-, and HN-TALEs to activate CACNA1C transcription by targeting the two endogenous target sites was tested (FIG. 19b). […] Both TALE 1-NH and TALE2-NH were able to achieve similar levels of transcriptional activation as TALE1-NN and TALE2-NN (˜5 and ˜3 folds of activation for targets 1 and 2, respectively) and twice more than TALE-NK and TALE2-NK (FIG. 19b). […] On the other hand, based on all the results from specificity and endogenous activity tests, the RVD NH seems to be a more suitable substitute for NN than NK when higher targeting specificity is desired, as it also provides higher levels of biological activity. Further testing using additional endogenous genomic targets helps validate the broad utility of NH as a highly specific G-targeting RVD.
For the endogenous gene transcriptional level assay to test the biological activities of TALE activators and TALE repressors, HEK 293FT cells were seeded into 24-well plates. […]

[2] = target: T2, TALE1-NH (CACNA1C site 1 activator) (Xanthomonas (engineered), UniProt P14727 SEQ:1-983); test: cell_activity; HEK 293FT, endogenous CACNA1C mRNA; reporter 1.9x that of NK; details: tags: VP64, 2A-GFP
T2 chain: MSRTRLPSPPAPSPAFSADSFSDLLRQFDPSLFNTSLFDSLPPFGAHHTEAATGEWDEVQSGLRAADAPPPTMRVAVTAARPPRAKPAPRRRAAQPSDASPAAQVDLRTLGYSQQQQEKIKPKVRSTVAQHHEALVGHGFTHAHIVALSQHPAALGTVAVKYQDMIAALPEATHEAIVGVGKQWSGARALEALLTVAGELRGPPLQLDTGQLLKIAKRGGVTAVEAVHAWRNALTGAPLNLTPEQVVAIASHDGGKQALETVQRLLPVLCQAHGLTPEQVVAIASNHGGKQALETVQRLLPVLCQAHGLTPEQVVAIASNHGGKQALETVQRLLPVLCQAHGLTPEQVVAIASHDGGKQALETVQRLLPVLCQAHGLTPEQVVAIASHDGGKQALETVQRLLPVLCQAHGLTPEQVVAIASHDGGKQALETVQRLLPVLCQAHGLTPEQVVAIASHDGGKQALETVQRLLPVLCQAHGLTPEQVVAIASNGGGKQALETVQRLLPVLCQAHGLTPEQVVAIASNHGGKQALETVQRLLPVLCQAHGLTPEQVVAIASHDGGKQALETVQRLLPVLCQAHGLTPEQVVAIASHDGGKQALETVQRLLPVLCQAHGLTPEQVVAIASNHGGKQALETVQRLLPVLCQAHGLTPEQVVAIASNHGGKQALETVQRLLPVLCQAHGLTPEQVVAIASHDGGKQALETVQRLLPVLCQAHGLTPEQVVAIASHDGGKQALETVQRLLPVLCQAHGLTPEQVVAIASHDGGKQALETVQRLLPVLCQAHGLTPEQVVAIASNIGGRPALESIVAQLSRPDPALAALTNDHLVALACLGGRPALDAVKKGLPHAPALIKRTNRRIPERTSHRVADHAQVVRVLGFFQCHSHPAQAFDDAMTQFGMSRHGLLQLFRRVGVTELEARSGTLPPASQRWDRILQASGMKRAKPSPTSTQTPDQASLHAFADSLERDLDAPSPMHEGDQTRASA

B1: CACNA1C site 1 (dsDNA)
DNA 1: TCGGCCCCTGCCGGCCCA
DNA 2: TGGGCCGGCAGGGGCCGA
activity [1]: ~5 fold activation
activity [2]: ~5 fold activation
